The record followed here is patent US20230324408A1 (JUNO THERAPEUTICS, published 2023).

Assay [1] deals with exemplary anti-ROR1 (ROR 1-1) chimeric antigen receptor. The experiment in a line: cell-based or functional assay.
The target is the same in assay [2]. The assay is described as follows: cell-based or functional assay. The source holds these as a separate data set.

exemplary anti-ROR1 (ROR 1-1) chimeric antigen receptor, sequence (chain, as listed by the source mutant limits assumed): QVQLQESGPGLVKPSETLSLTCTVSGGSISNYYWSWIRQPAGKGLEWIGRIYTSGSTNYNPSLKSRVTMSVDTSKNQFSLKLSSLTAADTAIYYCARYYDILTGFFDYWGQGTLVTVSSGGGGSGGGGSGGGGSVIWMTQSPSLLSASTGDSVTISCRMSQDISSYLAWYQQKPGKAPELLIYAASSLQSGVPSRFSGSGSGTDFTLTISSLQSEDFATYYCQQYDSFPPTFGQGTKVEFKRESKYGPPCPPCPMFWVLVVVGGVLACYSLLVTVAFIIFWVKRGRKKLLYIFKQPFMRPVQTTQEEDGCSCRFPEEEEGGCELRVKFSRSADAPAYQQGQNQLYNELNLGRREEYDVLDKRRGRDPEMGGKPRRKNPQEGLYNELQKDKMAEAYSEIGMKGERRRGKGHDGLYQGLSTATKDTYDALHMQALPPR

B1: anti-idiotype antibody clone F101 (antibody, mouse IgG1, kappa, V domains shown)
VH: QVQFQQSGAELARPGASVKLSCKASGYTFTSYWMQWVKQRPGQGLEWIGTIYPGDGDARYSQKFKGKATLTADKSSSTAYMQLSSLASEDSAVYYCTRRRGYDAMDYWGQGTSVTVSS
VL: NIVLTQSPASLAVSLGQRATISCRASESVDSYGSSFMHWYQEKPGQPPKLLIFLASNLESGVPARFSGSGSRTDFTLTIDPVEADDAATYYCQQNNEDPNMYTFGGGTKLEIRR
For B1, the “% Nur77-TdT of EGFRt+ cells, plate coated with 5 ug/ml antibody” value (“% Nur77-TdT … with 5 ug/ml antibody” for short) in assay [1] is 89.8%. Moreover, in assay [2], the “% Nur77-TdT of EGFRt+ cells, soluble antibody 0.3 ug/mL” value was 11.4%; the “% Nur77-TdT of EGFRt+ cells, soluble antibody 0.6 ug/mL” value was 11.8%; the “% Nur77-TdT of EGFRt+ cells, soluble antibody 10 ug/mL” value was 11.7%.

B2: anti-idiotype antibody clone F112 (antibody, mouse IgG1, V domains shown)
VH: QVQLQQPGAELVRPGASVKLSCKASGYPFTSYWINWVKQRPGQGLEWIGMIDPSDSETHYNQMFKDKATLTVDRSSSTAYMHLSSLTSEDSAVYYCARGGIRDYWGQGTTLTVSS
VL: QAVVTQESALTTSPGETVTLTCRSSTGAVTTSNYANWVQEKSDHLFTGLIGGTNNRAPGVPARFSGSLIGDKAALTITGAQTEDEAIYFCALWYSNHWVFGGGTKLTVLG
B2: the “% Nur77-TdT … with 5 ug/ml antibody” value in assay [1] worked out at 83.9%. In addition, in assay [2], the “% Nur77-TdT of EGFRt+ cells, soluble antibody 0.3 ug/mL” value came out at 38.3%; the “% Nur77-TdT of EGFRt+ cells, soluble antibody 0.6 ug/mL” value was determined as 41.3%; the “% Nur77-TdT of EGFRt+ cells, soluble antibody 10 ug/mL” value is 43.2%.

B3: anti-idiotype antibody clone F107 (antibody, mouse IgG1, kappa, V domains shown)
VH: QVTLKESGPGILKPSQTLSLTCSFSGFSLNTFGMGVGWIRQPSGKGLEWLAHIWWDDDKHYHPSLKSQLTISKDTSRNQVFLKITSVDTTDTATYYCVRRYRYDVFDYWGPGTTLTVSS
VL: DVMMTQTPLSLPVSLGDQASISCRSSQSLVHSNGNTYLHWYLQKPGQSPKLLIYKVSNRFSGVPDRFSGSGSGTDFTLKISRVEAEDLGVYFCSQSTHGPWTFGGGTKLEIKR
Regarding B3, the “% Nur77-TdT … with 5 ug/ml antibody” value in assay [1] is 85%. In assay [2], the “% Nur77-TdT of EGFRt+ cells, soluble antibody 0.3 ug/mL” value worked out at 15.6%; the “% Nur77-TdT of EGFRt+ cells, soluble antibody 0.6 ug/mL” value is 19.9%; the “% Nur77-TdT of EGFRt+ cells, soluble antibody 10 ug/mL” value came out at 28.3%.
